From PMC3408474, “Constitutive Phosphorylation of Interferon Receptor A-Associated Signaling Proteins in Systemic Lupus Erythematosus” (PLoS ONE, 2012)

Key:
[1] = biological target: T1, IFNAR1 chain of the type I interferon receptor (IFNAR) (human (endogenous in PBMC), UniProt P17181 28-557); experiment: co-IP; lysates (50 µg total protein) of PBMC from SLE patients or healthy controls, cultured in medium alone or with 50 U/ml IFNβ for 0, 30 min, 1 h and 4 h; incubated overnight at 4°C with mouse anti-IFNAR1 (protein A-Sepharose 4B) and/or rabbit anti-IFNAR2 (protein G-Sepharose 4B); blotted for SOCS1, STAT2, Jak1 and Tyk2; conditions: partners not purified
T1 construct: IFNAR1 chain of the human type I interferon receptor, endogenous in peripheral blood mononuclear cells; precipitated with mouse anti-IFNAR1 and protein A-Sepharose; source: endogenous, lysate of PBMC from SLE patients or healthy controls
T1 sequence (looked up): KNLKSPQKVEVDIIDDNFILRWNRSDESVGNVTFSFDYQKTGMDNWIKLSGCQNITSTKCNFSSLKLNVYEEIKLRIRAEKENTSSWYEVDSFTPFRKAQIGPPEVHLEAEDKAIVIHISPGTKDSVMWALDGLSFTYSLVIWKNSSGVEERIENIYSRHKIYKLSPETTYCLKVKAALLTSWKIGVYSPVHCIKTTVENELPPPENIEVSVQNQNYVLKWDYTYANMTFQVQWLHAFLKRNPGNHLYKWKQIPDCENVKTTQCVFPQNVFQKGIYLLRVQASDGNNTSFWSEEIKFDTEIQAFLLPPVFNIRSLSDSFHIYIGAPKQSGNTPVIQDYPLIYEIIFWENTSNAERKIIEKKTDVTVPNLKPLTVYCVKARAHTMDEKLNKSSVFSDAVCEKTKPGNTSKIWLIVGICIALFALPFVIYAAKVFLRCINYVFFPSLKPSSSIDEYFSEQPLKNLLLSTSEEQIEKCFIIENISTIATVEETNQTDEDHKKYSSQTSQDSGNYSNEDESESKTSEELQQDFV

[2] = biological target: T2, IFNAR2 chain of the type I interferon receptor (IFNAR) (human (endogenous in PBMC), UniProt P48551 27-515); experiment: as above; conditions: partners not purified
T2 construct: IFNAR2 chain of the human type I interferon receptor, endogenous in peripheral blood mononuclear cells; precipitated with rabbit anti-IFNAR2 and protein G-Sepharose; source: endogenous, lysate of PBMC from SLE patients or healthy controls
T2 sequence (looked up): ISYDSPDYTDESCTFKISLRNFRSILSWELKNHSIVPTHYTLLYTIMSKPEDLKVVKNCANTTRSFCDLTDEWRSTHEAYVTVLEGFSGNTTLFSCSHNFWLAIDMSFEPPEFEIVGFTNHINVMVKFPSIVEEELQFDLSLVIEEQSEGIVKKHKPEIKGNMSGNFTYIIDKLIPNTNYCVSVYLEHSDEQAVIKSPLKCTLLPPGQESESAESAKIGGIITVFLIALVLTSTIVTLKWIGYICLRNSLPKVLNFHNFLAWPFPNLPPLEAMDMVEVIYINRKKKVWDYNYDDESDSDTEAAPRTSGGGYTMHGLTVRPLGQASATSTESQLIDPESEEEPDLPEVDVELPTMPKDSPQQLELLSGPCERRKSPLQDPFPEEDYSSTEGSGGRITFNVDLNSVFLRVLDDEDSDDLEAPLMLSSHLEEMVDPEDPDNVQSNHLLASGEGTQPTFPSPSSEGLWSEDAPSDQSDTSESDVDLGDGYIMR

B1: suppressor of cytokine signaling 1 (SOCS1) (natural protein, human (endogenous in PBMC), UniProt O15524 1-211, looked up)
chain: MVAHNQVAADNAVSTAAEPRRRPEPSSSSSSSPAAPARPRPCPAVPAPAPGDTHFRTFRSHADYRRITRASALLDACGFYWGPLSVHGAHERLRAEPVGTFLVRDSRQRNCFFALSVKMASGPTSIRVHFQAGRFHLDGSRESFDCLFELLEHYVAAPRRMLGAPLRQRRVRPLQELCRQRIVATVGRENLARIPLNPVLRDYLSSFPFQI
notes: SOCS1, endogenous in human peripheral blood mononuclear cells; detected by blot with anti-SOCS1; source: endogenous, lysate of PBMC from SLE patients or healthy controls
fold increase of association one hour after IFNβ over unstimulated cells [1]: < 1 fold | fold increase of association one hour after IFNβ over unstimulated cells [2]: ~6 fold
